Stoichiometry N and percent of the preparation as dimer data for two substances are collected here from article doi:10.1101/2021.05.10.443404.

A word on the stoichiometry N: it is a count of units in the complex or per binding partner.

The target in assay [1] is (RBD(319-541)-CHO)2 (SARS-CoV-2) (UniProt P0DTC2). Put plainly: SDS-PAGE.
The target in assay [2] is RBD(319-541)-HEK_A3 (SARS-CoV-2) (UniProt P0DTC2). Put plainly: SDS-PAGE.

In assay [1], “(RBD(319-541)-CHO)2 (from UniProt P0DTC2 319-541) (domain or fragment)” registered a stoichiometry N of 2.

In assay [2], “RBD(319-541)-HEK_A3 (from UniProt P0DTC2 319-541) (domain or fragment)” registered a percent of the preparation as dimer of 13% and a stoichiometry N of 2.
